The target in this assay is CD40 on the surface of mature dendritic cells (mDC) (human) (UniProt P25942). Nature of the assay: cell-based or functional assay.
Chain of CD40 on the surface of mature dendritic cells (mDC) (human) (P25942 21-277): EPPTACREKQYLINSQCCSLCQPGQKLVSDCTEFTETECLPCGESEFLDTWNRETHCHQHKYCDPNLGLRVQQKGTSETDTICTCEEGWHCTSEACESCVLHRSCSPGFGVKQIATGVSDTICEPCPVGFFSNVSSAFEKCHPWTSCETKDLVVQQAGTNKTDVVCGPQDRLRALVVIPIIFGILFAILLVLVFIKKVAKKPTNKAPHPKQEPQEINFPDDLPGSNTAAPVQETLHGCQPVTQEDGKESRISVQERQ

The substance “CD40L recombinant protein (from UniProt P29965 113-261) (ligand)” showed a CD83+ (%) of mDC, agonist at 2 µg/mL (control group 81.00) of 88.2% and an IL-12p70 (pg/mL), agonist at 2 µg/mL (control group 50.0) of 874 pg/mL.

The values above are taken from patent publication US12440565.
